# According to patent US20260001928A1 (CORTERIA PHARMACEUTICALS, priority 2022, published 2026):
# *1 amine or outer side, *2 acyl side, *3 side chain or, on linkers, in order; H or OH if unused. Where no end group is shown, it is not given here. Side-chain parts run from the residue outwards. [ ]: non-standard residue; d: D form. The star is where a group is joined. C16 diacid = O=C(O)CCCCCCCCCCCCCCC(=O)*; γGlu = O=C(O)[C@H](CCC(=O)[*:2])N[*:1]; NMeI = CC[C@H](C)[C@H](NC)C(=O)O; Api = NC1(C(=O)O)CCNCC1; Hexanoyl = CCCCCC(=O)*; Aib = CC(C)(N)C(=O)O
# T1: CRF1R receptor (UniProt P34998 24-415, limits assumed)
# T1 sequence (looked up): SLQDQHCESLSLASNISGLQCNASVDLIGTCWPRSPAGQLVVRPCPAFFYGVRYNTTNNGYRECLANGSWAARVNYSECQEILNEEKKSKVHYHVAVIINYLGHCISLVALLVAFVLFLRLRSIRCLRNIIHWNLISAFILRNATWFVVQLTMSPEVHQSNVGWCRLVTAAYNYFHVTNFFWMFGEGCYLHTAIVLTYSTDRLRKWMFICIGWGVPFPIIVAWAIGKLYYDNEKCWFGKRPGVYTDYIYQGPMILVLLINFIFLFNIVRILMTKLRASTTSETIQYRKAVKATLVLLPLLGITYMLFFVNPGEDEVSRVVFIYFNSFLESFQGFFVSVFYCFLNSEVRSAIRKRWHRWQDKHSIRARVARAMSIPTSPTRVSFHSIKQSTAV
# B1: SEQ ID NO 155 (peptide)
# peptide: [NMeI]VLSLD[dV]PIKLK([γGlu-C16 diacid])KILLEQEKQK[Aib]QREQAETN[Api]QILAQV-NH2
# modifications: N-terminus assumed
# SMILES: CC[C@H](C)[C@H](NC)C(=O)N[C@H](C(=O)N[C@@H](CC(C)C)C(=O)N[C@@H](CO)C(=O)N[C@@H](CC(C)C)C(=O)N[C@@H](CC(=O)O)C(=O)N[C@@H](C(=O)N1CCC[C@H]1C(=O)N[C@H](C(=O)N[C@@H](CCCCN)C(=O)N[C@@H](CC(C)C)C(=O)N[C@@H](CCCCNC(=O)CC[C@H](NC(=O)CCCCCCCCCCCCCCC(=O)O)C(=O)O)C(=O)N[C@@H](CCCCN)C(=O)N[C@H](C(=O)N[C@@H](CC(C)C)C(=O)N[C@@H](CC(C)C)C(=O)N[C@@H](CCC(=O)O)C(=O)N[C@@H](CCC(N)=O)C(=O)N[C@@H](CCC(=O)O)C(=O)N[C@@H](CCCCN)C(=O)N[C@@H](CCC(N)=O)C(=O)N[C@@H](CCCCN)C(=O)NC(C)(C)C(=O)N[C@@H](CCC(N)=O)C(=O)N[C@@H](CCCNC(=N)N)C(=O)N[C@@H](CCC(=O)O)C(=O)N[C@@H](CCC(N)=O)C(=O)N[C@@H](C)C(=O)N[C@@H](CCC(=O)O)C(=O)N[C@H](C(=O)N[C@@H](CC(N)=O)C(=O)NC1(C(=O)N[C@@H](CCC(N)=O)C(=O)N[C@H](C(=O)N[C@@H](CC(C)C)C(=O)N[C@@H](C)C(=O)N[C@@H](CCC(N)=O)C(=O)N[C@H](C(N)=O)C(C)C)[C@@H](C)CC)CCNCC1)[C@@H](C)O)[C@@H](C)CC)[C@@H](C)CC)C(C)C)C(C)C
# B2: SEQ ID NO 153 (peptide)
# peptide: Ac-IVLSLD[dV]PIKLK([γGlu-C16 diacid])KILLEQEKQK[Aib]QREQAETN[Api]QILAQV-NH2
# SMILES: CC[C@H](C)[C@H](NC(C)=O)C(=O)N[C@H](C(=O)N[C@@H](CC(C)C)C(=O)N[C@@H](CO)C(=O)N[C@@H](CC(C)C)C(=O)N[C@@H](CC(=O)O)C(=O)N[C@@H](C(=O)N1CCC[C@H]1C(=O)N[C@H](C(=O)N[C@@H](CCCCN)C(=O)N[C@@H](CC(C)C)C(=O)N[C@@H](CCCCNC(=O)CC[C@H](NC(=O)CCCCCCCCCCCCCCC(=O)O)C(=O)O)C(=O)N[C@@H](CCCCN)C(=O)N[C@H](C(=O)N[C@@H](CC(C)C)C(=O)N[C@@H](CC(C)C)C(=O)N[C@@H](CCC(=O)O)C(=O)N[C@@H](CCC(N)=O)C(=O)N[C@@H](CCC(=O)O)C(=O)N[C@@H](CCCCN)C(=O)N[C@@H](CCC(N)=O)C(=O)N[C@@H](CCCCN)C(=O)NC(C)(C)C(=O)N[C@@H](CCC(N)=O)C(=O)N[C@@H](CCCNC(=N)N)C(=O)N[C@@H](CCC(=O)O)C(=O)N[C@@H](CCC(N)=O)C(=O)N[C@@H](C)C(=O)N[C@@H](CCC(=O)O)C(=O)N[C@H](C(=O)N[C@@H](CC(N)=O)C(=O)NC1(C(=O)N[C@@H](CCC(N)=O)C(=O)N[C@H](C(=O)N[C@@H](CC(C)C)C(=O)N[C@@H](C)C(=O)N[C@@H](CCC(N)=O)C(=O)N[C@H](C(N)=O)C(C)C)[C@@H](C)CC)CCNCC1)[C@@H](C)O)[C@@H](C)CC)[C@@H](C)CC)C(C)C)C(C)C
# B3: SEQ ID NO 75 (peptide)
# peptide: [NMeI]VLSLD[dV]PIKLK([γGlu-C16 diacid])KILLEQEKQK[Aib]QREQAETN[Aib]QILAQV-NH2
# modifications: N-terminus assumed
# SMILES: CC[C@H](C)[C@H](NC)C(=O)N[C@H](C(=O)N[C@@H](CC(C)C)C(=O)N[C@@H](CO)C(=O)N[C@@H](CC(C)C)C(=O)N[C@@H](CC(=O)O)C(=O)N[C@@H](C(=O)N1CCC[C@H]1C(=O)N[C@H](C(=O)N[C@@H](CCCCN)C(=O)N[C@@H](CC(C)C)C(=O)N[C@@H](CCCCNC(=O)CC[C@H](NC(=O)CCCCCCCCCCCCCCC(=O)O)C(=O)O)C(=O)N[C@@H](CCCCN)C(=O)N[C@H](C(=O)N[C@@H](CC(C)C)C(=O)N[C@@H](CC(C)C)C(=O)N[C@@H](CCC(=O)O)C(=O)N[C@@H](CCC(N)=O)C(=O)N[C@@H](CCC(=O)O)C(=O)N[C@@H](CCCCN)C(=O)N[C@@H](CCC(N)=O)C(=O)N[C@@H](CCCCN)C(=O)NC(C)(C)C(=O)N[C@@H](CCC(N)=O)C(=O)N[C@@H](CCCNC(=N)N)C(=O)N[C@@H](CCC(=O)O)C(=O)N[C@@H](CCC(N)=O)C(=O)N[C@@H](C)C(=O)N[C@@H](CCC(=O)O)C(=O)N[C@H](C(=O)N[C@@H](CC(N)=O)C(=O)NC(C)(C)C(=O)N[C@@H](CCC(N)=O)C(=O)N[C@H](C(=O)N[C@@H](CC(C)C)C(=O)N[C@@H](C)C(=O)N[C@@H](CCC(N)=O)C(=O)N[C@H](C(N)=O)C(C)C)[C@@H](C)CC)[C@@H](C)O)[C@@H](C)CC)[C@@H](C)CC)C(C)C)C(C)C
# B4: SEQ ID NO 154 (peptide)
# peptide: [NMeI]VLSLD[dV]PIKLK([γGlu-C16 diacid])KILLEQEKQKAQREQAETN[Api]QILAQV-NH2
# modifications: N-terminus assumed
# SMILES: CC[C@H](C)[C@H](NC)C(=O)N[C@H](C(=O)N[C@@H](CC(C)C)C(=O)N[C@@H](CO)C(=O)N[C@@H](CC(C)C)C(=O)N[C@@H](CC(=O)O)C(=O)N[C@@H](C(=O)N1CCC[C@H]1C(=O)N[C@H](C(=O)N[C@@H](CCCCN)C(=O)N[C@@H](CC(C)C)C(=O)N[C@@H](CCCCNC(=O)CC[C@H](NC(=O)CCCCCCCCCCCCCCC(=O)O)C(=O)O)C(=O)N[C@@H](CCCCN)C(=O)N[C@H](C(=O)N[C@@H](CC(C)C)C(=O)N[C@@H](CC(C)C)C(=O)N[C@@H](CCC(=O)O)C(=O)N[C@@H](CCC(N)=O)C(=O)N[C@@H](CCC(=O)O)C(=O)N[C@@H](CCCCN)C(=O)N[C@@H](CCC(N)=O)C(=O)N[C@@H](CCCCN)C(=O)N[C@@H](C)C(=O)N[C@@H](CCC(N)=O)C(=O)N[C@@H](CCCNC(=N)N)C(=O)N[C@@H](CCC(=O)O)C(=O)N[C@@H](CCC(N)=O)C(=O)N[C@@H](C)C(=O)N[C@@H](CCC(=O)O)C(=O)N[C@H](C(=O)N[C@@H](CC(N)=O)C(=O)NC1(C(=O)N[C@@H](CCC(N)=O)C(=O)N[C@H](C(=O)N[C@@H](CC(C)C)C(=O)N[C@@H](C)C(=O)N[C@@H](CCC(N)=O)C(=O)N[C@H](C(N)=O)C(C)C)[C@@H](C)CC)CCNCC1)[C@@H](C)O)[C@@H](C)CC)[C@@H](C)CC)C(C)C)C(C)C
# B5: SEQ ID NO 152 (peptide)
# peptide: Ac-IVLSLD[dV]PIKLK([γGlu-C16 diacid])KILLEQEKQKAQREQAETN[Api]QILAQV-NH2
# SMILES: CC[C@H](C)[C@H](NC(C)=O)C(=O)N[C@H](C(=O)N[C@@H](CC(C)C)C(=O)N[C@@H](CO)C(=O)N[C@@H](CC(C)C)C(=O)N[C@@H](CC(=O)O)C(=O)N[C@@H](C(=O)N1CCC[C@H]1C(=O)N[C@H](C(=O)N[C@@H](CCCCN)C(=O)N[C@@H](CC(C)C)C(=O)N[C@@H](CCCCNC(=O)CC[C@H](NC(=O)CCCCCCCCCCCCCCC(=O)O)C(=O)O)C(=O)N[C@@H](CCCCN)C(=O)N[C@H](C(=O)N[C@@H](CC(C)C)C(=O)N[C@@H](CC(C)C)C(=O)N[C@@H](CCC(=O)O)C(=O)N[C@@H](CCC(N)=O)C(=O)N[C@@H](CCC(=O)O)C(=O)N[C@@H](CCCCN)C(=O)N[C@@H](CCC(N)=O)C(=O)N[C@@H](CCCCN)C(=O)N[C@@H](C)C(=O)N[C@@H](CCC(N)=O)C(=O)N[C@@H](CCCNC(=N)N)C(=O)N[C@@H](CCC(=O)O)C(=O)N[C@@H](CCC(N)=O)C(=O)N[C@@H](C)C(=O)N[C@@H](CCC(=O)O)C(=O)N[C@H](C(=O)N[C@@H](CC(N)=O)C(=O)NC1(C(=O)N[C@@H](CCC(N)=O)C(=O)N[C@H](C(=O)N[C@@H](CC(C)C)C(=O)N[C@@H](C)C(=O)N[C@@H](CCC(N)=O)C(=O)N[C@H](C(N)=O)C(C)C)[C@@H](C)CC)CCNCC1)[C@@H](C)O)[C@@H](C)CC)[C@@H](C)CC)C(C)C)C(C)C
# B6: SEQ ID NO 156 (peptide)
# peptide: Hexanoyl-VLSLD[dV]PIKLK([γGlu-C16 diacid])KILLEQEKQKKQREQAETN[Aib]QILAQV-NH2
# SMILES: CCCCCC(=O)N[C@H](C(=O)N[C@@H](CC(C)C)C(=O)N[C@@H](CO)C(=O)N[C@@H](CC(C)C)C(=O)N[C@@H](CC(=O)O)C(=O)N[C@@H](C(=O)N1CCC[C@H]1C(=O)N[C@H](C(=O)N[C@@H](CCCCN)C(=O)N[C@@H](CC(C)C)C(=O)N[C@@H](CCCCNC(=O)CC[C@H](NC(=O)CCCCCCCCCCCCCCC(=O)O)C(=O)O)C(=O)N[C@@H](CCCCN)C(=O)N[C@H](C(=O)N[C@@H](CC(C)C)C(=O)N[C@@H](CC(C)C)C(=O)N[C@@H](CCC(=O)O)C(=O)N[C@@H](CCC(N)=O)C(=O)N[C@@H](CCC(=O)O)C(=O)N[C@@H](CCCCN)C(=O)N[C@@H](CCC(N)=O)C(=O)N[C@@H](CCCCN)C(=O)N[C@@H](CCCCN)C(=O)N[C@@H](CCC(N)=O)C(=O)N[C@@H](CCCNC(=N)N)C(=O)N[C@@H](CCC(=O)O)C(=O)N[C@@H](CCC(N)=O)C(=O)N[C@@H](C)C(=O)N[C@@H](CCC(=O)O)C(=O)N[C@H](C(=O)N[C@@H](CC(N)=O)C(=O)NC(C)(C)C(=O)N[C@@H](CCC(N)=O)C(=O)N[C@H](C(=O)N[C@@H](CC(C)C)C(=O)N[C@@H](C)C(=O)N[C@@H](CCC(N)=O)C(=O)N[C@H](C(N)=O)C(C)C)[C@@H](C)CC)[C@@H](C)O)[C@@H](C)CC)[C@@H](C)CC)C(C)C)C(C)C
# Target: human corticotropin-releasing factor 2a (CRF2a receptor) (human), Q13324
# Sequence (Q13324 20-411): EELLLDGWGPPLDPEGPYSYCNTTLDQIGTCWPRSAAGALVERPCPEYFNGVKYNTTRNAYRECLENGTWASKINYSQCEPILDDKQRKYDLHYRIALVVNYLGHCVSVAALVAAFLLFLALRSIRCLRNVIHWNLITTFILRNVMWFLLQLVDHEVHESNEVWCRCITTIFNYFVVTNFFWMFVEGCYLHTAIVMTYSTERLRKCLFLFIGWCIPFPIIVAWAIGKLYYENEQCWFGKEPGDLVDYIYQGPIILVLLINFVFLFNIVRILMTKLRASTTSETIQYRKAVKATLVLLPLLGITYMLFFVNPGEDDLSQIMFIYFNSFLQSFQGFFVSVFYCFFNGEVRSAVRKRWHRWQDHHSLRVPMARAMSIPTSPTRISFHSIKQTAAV
# Test: cell-based or functional assay
row,EC50 [nM] (cAMP),Binder
1,0.51,B1
2,0.41,B2
3,0.19,B3
4,0.52,B4
5,0.44,VLSLD[dV]PIKLK([γGlu-C16 diacid])QILLKQERQKKQREQAEKNKQILEQV-NH2 [SEQ ID NO 4]
6,0.51,B5
7,0.29,B6

# Target: T1, CRF1R receptor
# Test: cell-based or functional assay
Emax (% I) [%],EC50 [nM],Binder
26,–,B1
22,–,B2
3,–,B3
24,–,B4
4,> 250,VLSLD[dV]PIKLK([γGlu-C16 diacid])QILLKQERQKKQREQAEKNKQILEQV-NH2 [SEQ ID NO 4]
25,–,B5
8,–,B6
